Assay results reported in publication PMC5509742, “Structure of polyhydroxyalkanoate (PHA) synthase PhaC from Chromobacterium sp. USM2, producing biodegradable plastics” (Scientific Reports, 2017).

B1: PHA synthase PhaC from Chromobacterium sp. USM2, full-length (enzyme)
chain: not shown
notes: two additional vector-derived residues (Gly-Pro) identified at the N-terminus after PreScission cleavage; Class I PHA synthase PhaC, Chromobacterium sp; USM2; full-length gene of 1704 nucleotides, calc; 63.4 kDa; Cloned into the His-fusion vector pET47b(+); the His-tag was removed with PreScission protease; also called PhaCCs; full-length PhaCCs; source: E. coli Rosetta 2 (DE3), purified (Ni-NTA, …)
B2: catalytic domain of PhaC from Chromobacterium sp. USM2 (residues 175-567) (domain or fragment)
chain: not shown
notes: two additional vector-derived residues (Gly-Pro) identified at the N-terminus after PreScission cleavage; Class I PHA synthase PhaC, Chromobacterium sp; USM2, C-terminal catalytic (CAT) domain, residues 175-567 (1179 nucleotides, calc. 43.8 kDa); Cloned into the His-fusion vector pET47b(+); the His-tag was removed with PreScission protease; also called PhaCCs-CAT; mol A; source: E. coli Rosetta 2 …

Assays:
[1] = molecular target: the molecule itself; assay: AUC; sedimentation velocity, 20 °C, 20,000 rpm, 5 µM full-length PhaCCs without substrate, 10 mM Tris-HCl (pH 8.0), 100 mM NaCl, 3 mM β-ME; monomer to dimer
[2] = molecular target: the molecule itself; assay: AUC; sedimentation velocity, 20 °C, 20,000 rpm, 5 µM full-length PhaCCs with 50 µM DL-3HB-CoA (10-fold molar ratio), 10 mM Tris-HCl (pH 8.0), 100 mM NaCl, 3 mM β-ME
[3] = molecular target: the molecule itself; assay: AUC; sedimentation velocity, 20 °C, 20 µM PhaCCs-CAT without DL-3HB-CoA, 10 mM Tris-HCl (pH 8.0), 100 mM NaCl, 3 mM β-ME; monomer to dimer

Protein | stoichiometry N [1] | stoichiometry N [2] | stoichiometry N [3]
B1 | 2 | ~4 | –
B2 | – | – | 2
